Measurements published in patent US20160347827A1.
Positions count from the first letter of the chain named.

B1: humanized 5B3.1 IgG1 (antibody, V domains shown)
VH: EVQLVESGGGLVKPGGSLRLSCAASGFTFSSYSMSWVRQAPGKGLEWVAMISSGGSYSYYADSVKGRFTISRDNSKNTLYLQMNSLRAEDTAVYYCARQGDYAWFDIWGQGTLVTVS
VL: DIQMTQSPSSLSASVGDRVTITCLASQTIGTWLAWYQQKPGKAPKLLIYAATSLADGVPSRFSGSGSGTDFTLTISSLQPEDFATYYCQQFYSTPFTFGGGTKLEIKR
B2: humanized 5B3 IgG1 (antibody, V domains shown)
VH: B1 VH with S33D, A61P, D106A, I107Y
VL: B1 VL
B3: murine 5B3 monoclonal antibody (antibody, V domains shown)
VH: EVQLVESGGGLVKPGGSLKLSCAASGFTFSSYDMSWVRQTPEKRLEWVAMISSGGSYSYYPDSVKGRFTISRDNAKNTLYLQMSSLRSEDTAMYYCARQGDYAWFAYWGQGTLVTVS
VL: DIQMTQSPASQSASLGESVTITCLASQTIGTWLAWYQQKPGKSPQLLIYAATSLADGVPSRFSGSGSGTKFSFKISSLQAEDFVSYYCQQFYSTPFTFGGGTKLEIKR

Key:
[1] = target: soluble F glycoprotein (sF); test: SPR, Biacore 3000, mAb captured by anti-Fc on CM5, sF in solution
[2] = target: full-length wild-type HeV F glycoprotein (Hendra virus) (UniProt O89342); test: cell-based or functional assay
Sequence of UniProt O89342 (O89342 27-546): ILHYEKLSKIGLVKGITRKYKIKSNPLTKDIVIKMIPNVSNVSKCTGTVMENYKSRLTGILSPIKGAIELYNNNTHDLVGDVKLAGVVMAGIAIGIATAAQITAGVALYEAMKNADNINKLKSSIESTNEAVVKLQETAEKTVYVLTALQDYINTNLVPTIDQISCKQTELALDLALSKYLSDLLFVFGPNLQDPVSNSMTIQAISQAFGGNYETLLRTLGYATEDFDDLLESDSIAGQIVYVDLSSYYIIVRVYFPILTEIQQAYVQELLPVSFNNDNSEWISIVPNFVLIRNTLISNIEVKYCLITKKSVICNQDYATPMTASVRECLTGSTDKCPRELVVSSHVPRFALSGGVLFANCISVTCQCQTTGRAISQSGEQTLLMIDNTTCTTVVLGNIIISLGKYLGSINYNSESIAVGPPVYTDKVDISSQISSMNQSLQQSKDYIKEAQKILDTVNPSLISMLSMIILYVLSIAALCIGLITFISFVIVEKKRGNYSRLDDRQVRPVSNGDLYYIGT

[3] = target: full-length wild-type NiV F glycoprotein (Nipah virus) (UniProt Q9IH63); test: cell-based or functional assay
Sequence of UniProt Q9IH63 (Q9IH63 27-546): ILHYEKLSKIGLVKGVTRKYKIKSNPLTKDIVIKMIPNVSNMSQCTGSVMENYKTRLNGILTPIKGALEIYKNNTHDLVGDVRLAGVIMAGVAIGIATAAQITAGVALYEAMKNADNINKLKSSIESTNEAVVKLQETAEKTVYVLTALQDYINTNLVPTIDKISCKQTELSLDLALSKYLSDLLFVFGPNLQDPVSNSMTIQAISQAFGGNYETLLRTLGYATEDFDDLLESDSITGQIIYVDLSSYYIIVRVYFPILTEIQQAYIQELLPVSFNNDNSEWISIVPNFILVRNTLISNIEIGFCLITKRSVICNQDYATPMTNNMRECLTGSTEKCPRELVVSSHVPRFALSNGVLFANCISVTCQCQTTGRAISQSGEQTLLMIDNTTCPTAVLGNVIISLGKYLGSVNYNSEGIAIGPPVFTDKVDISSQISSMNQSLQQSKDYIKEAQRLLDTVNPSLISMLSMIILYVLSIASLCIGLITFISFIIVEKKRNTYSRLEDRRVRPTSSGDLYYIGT

| Binder | Ka [1] [M⁻¹] | Kd [1] [nM] | koff [1] [s⁻¹] | kon [1] [M⁻¹ s⁻¹] | virus neutralization titer, HeV 100 TCID50 (cpe fully inhibited, Vero cells) [2] [µg/mL] | virus neutralization titer, HeV 200 TCID50 (cpe fully inhibited, Vero cells) [2] [µg/mL] | virus neutralization titer, NiV 100 TCID50 (cpe fully inhibited, Vero cells) [3] [µg/mL] | virus neutralization titer, NiV 200 TCID50 (cpe fully inhibited, Vero cells) [3] [µg/mL] |
| --- | --- | --- | --- | --- | --- | --- | --- | --- |
| B1 | 1.6e+07 | 62 | 0.0017 | 27000 | > 100 | > 100 | > 100 | > 100 |
| B2 | 7.5e+07 | 13 | 0.00033 | 25000 | 0.78 | 12.5 | 1.56 | 3.12 |
| B3 | 3.7e+08 | 2.7 | – | – | – | – | – | – |
